Reference: the supplement of paper PMC10567573

B1: ZNF449 (parent)
chain: EPHKCPECGKRFLRSSDLYRHQRL

Variants of: B1
Assay: protein stability index of a GFP-peptide fusion (GPS, HEK-293T) (PSI 1-6); higher = more stable
Details: c terminus: a fixed tail appended
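Further: lentivirally expressed fusions sorted by FACS into six bins by GFP to DsRed ratio, PSI derived from sequencing read proportions per bin multiplied by bin number.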

Going from EPHKCPECGKRFLRSSDLFRHQRL to EPHKCPECGKRFLRSSDLERHQRL, the protein stability index rises from 3.96 to 4.63.

First: EPHKCPECGKRFLRSSDLCRHQRL
Second: EPHKCPECGKRFLRSSDLMRHQRL
The protein stability index of the first is higher: 4.7 for the first, 3.65 for the second.

Going from EPHKCPECGKRFLRSSDLIRHQRL to EPHKCPECGKRFLRSSDLDRHQRL, the protein stability index rises from 3.86 to 4.68.

First: EPHKCPECGKRFLRSSDLVRHQRL
Second: EPHKCPECGKRFLRSSDLARHQRL
The protein stability index of the first is lower: 3.89 for the first, 4.05 for the second.

Going from EPHKCPECGKRFLRSSDLPRHQRL to EPHKCPECGKRFLRSSDLNRHQRL, the protein stability index rises from 2.62 to 3.4.

Going from EPHKCPECGKRFLRSSDLLRHQRL to EPHKCPECGKRFLRSSDLKRHQRL, the protein stability index falls from 4.04 to 3.92.

Going from EPHKCPECGKRFLRSSDLHRHQRL to EPHKCPECGKRFLRSSDLQRHQRL, the protein stability index falls from 3.99 to 3.84.

Compared with EPHKCPECGKRFLRSSDLRRHQRL, EPHKCPECGKRFLRSSDLWRHQRL is lower in protein stability index: 3.55 for the first, 2.86 for the second.

Going from EPHKCPECGKRFLRSSDLGRHQRL to EPHKCPECGKRFLRSSDLTRHQRL, the protein stability index rises from 2.92 to 3.6.

First: EPHKCPECGKRFLRSSDLSRHQRL
Second: EPHKCPECGKRFLRSSDLYQHQRL
The protein stability index of the first is lower: 3.68 for the first, 4.29 for the second.

First: EPHKCPECGKRFLRSSDLYDHQRL
Second: EPHKCPECGKRFLRSSDLYLHQRL
The protein stability index of the first is higher: 4.5 for the first, 3.55 for the second.

First: EPHKCPECGKRFLRSSDLYPHQRL
Second: EPHKCPECGKRFLRSSDLYIHQRL
The protein stability index of the first is lower: 2.88 for the first, 3.56 for the second.

First: EPHKCPECGKRFLRSSDLYHHQRL
Second: EPHKCPECGKRFLRSSDLYWHQRL
The protein stability index of the first is higher: 4.14 for the first, 3.6 for the second.

First: EPHKCPECGKRFLRSSDLYTHQRL
Second: EPHKCPECGKRFLRSSDLYFHQRL
The protein stability index of the first is higher: 4.01 for the first, 3.42 for the second.

Compared with EPHKCPECGKRFLRSSDLYKHQRL, EPHKCPECGKRFLRSSDLYMHQRL is lower in protein stability index: 4.43 for the first, 3.83 for the second.

Going from EPHKCPECGKRFLRSSDLYVHQRL to EPHKCPECGKRFLRSSDLYNHQRL, the protein stability index rises from 4.02 to 4.21.

Going from EPHKCPECGKRFLRSSDLYGHQRL to EPHKCPECGKRFLRSSDLYAHQRL, the protein stability index rises from 3.21 to 4.66.

Compared with EPHKCPECGKRFLRSSDLYSHQRL, EPHKCPECGKRFLRSSDLYYHQRL is lower in protein stability index: 4.2 for the first, 3.32 for the second.

Compared with EPHKCPECGKRFLRSSDLYEHQRL, EPHKCPECGKRFLRSSDLYCHQRL is lower in protein stability index: 4.63 for the first, 3.69 for the second.

Compared with EPHKCPECGKRFLRSSDLYRHNRL, EPHKCPECGKRFLRSSDLYRHDRL is lower in protein stability index: 3.36 for the first, 2.39 for the second.

First: EPHKCPECGKRFLRSSDLYRHVRL
Second: EPHKCPECGKRFLRSSDLYRHIRL
The protein stability index of the first is higher: 3.76 for the first, 2.91 for the second.

First: EPHKCPECGKRFLRSSDLYRHKRL
Second: EPHKCPECGKRFLRSSDLYRHWRL
The protein stability index of the first is higher: 3.28 for the first, 2.78 for the second.

Compared with EPHKCPECGKRFLRSSDLYRHPRL, EPHKCPECGKRFLRSSDLYRHSRL is higher in protein stability index: 2.4 for the first, 3.16 for the second.

Compared with EPHKCPECGKRFLRSSDLYRHGRL, EPHKCPECGKRFLRSSDLYRHFRL is higher in protein stability index: 2.83 for the first, 3.14 for the second.

Compared with EPHKCPECGKRFLRSSDLYRHRRL, EPHKCPECGKRFLRSSDLYRHTRL is lower in protein stability index: 3.84 for the first, 3.3 for the second.

First: EPHKCPECGKRFLRSSDLYRHYRL
Second: EPHKCPECGKRFLRSSDLYRHLRL
The protein stability index of the first is lower: 3.44 for the first, 3.93 for the second.

Compared with EPHKCPECGKRFLRSSDLYRHMRL, EPHKCPECGKRFLRSSDLYRHARL is lower in protein stability index: 3.83 for the first, 3.04 for the second.

Going from EPHKCPECGKRFLRSSDLYRHERL to EPHKCPECGKRFLRSSDLYRHCRL, the protein stability index rises from 3.92 to 3.97.

First: EPHKCPECGKRFLRSSDLYRHHRL
Second: EPHKCPECGKRFLRSSDLYRHQRN
The protein stability index of the first is lower: 3.27 for the first, 4.29 for the second.

First: EPHKCPECGKRFLRSSDLYRHQRI
Second: EPHKCPECGKRFLRSSDLYRHQRR
The protein stability index of the first is lower: 3.63 for the first, 3.84 for the second.

Compared with EPHKCPECGKRFLRSSDLYRHQRC, EPHKCPECGKRFLRSSDLYRHQRV is lower in protein stability index: 4.97 for the first, 3.82 for the second.

Compared with EPHKCPECGKRFLRSSDLYRHQRH, EPHKCPECGKRFLRSSDLYRHQRT is lower in protein stability index: 4.18 for the first, 4.06 for the second.

First: EPHKCPECGKRFLRSSDLYRHQRY
Second: EPHKCPECGKRFLRSSDLYRHQRG
The protein stability index of the first is lower: 3.31 for the first, 4.52 for the second.

Going from EPHKCPECGKRFLRSSDLYRHQRK to EPHKCPECGKRFLRSSDLYRHQRF, the protein stability index falls from 4 to 3.23.

Compared with EPHKCPECGKRFLRSSDLYRHQRE, EPHKCPECGKRFLRSSDLYRHQRM is lower in protein stability index: 4.95 for the first, 3.94 for the second.

Compared with EPHKCPECGKRFLRSSDLYRHQRA, EPHKCPECGKRFLRSSDLYRHQRP is higher in protein stability index: 3.83 for the first, 3.85 for the second.

Compared with EPHKCPECGKRFLRSSDLYRHQRQ, EPHKCPECGKRFLRSSDLYRHQRD is higher in protein stability index: 4.6 for the first, 4.98 for the second.

Compared with EPHKCPECGKRFLRSSDLYRHQRW, EPHKCPECGKRFLRSSDLYRHQRS is higher in protein stability index: 3.01 for the first, 4.4 for the second.

First: EPHKCPECGKRFLRSSDTYRHQRL
Second: EPHKCPECGKRFLRSSDVYRHQRL
The protein stability index of the first is lower: 2.48 for the first, 3.12 for the second.

Compared with EPHKCPECGKRFLRSSDPYRHQRL, EPHKCPECGKRFLRSSDSYRHQRL is higher in protein stability index: 2.37 for the first, 3.15 for the second.

First: EPHKCPECGKRFLRSSDRYRHQRL
Second: EPHKCPECGKRFLRSSDWYRHQRL
The protein stability index of the first is lower: 3.3 for the first, 3.37 for the second.

Compared with EPHKCPECGKRFLRSSDQYRHQRL, EPHKCPECGKRFLRSSDYYRHQRL is higher in protein stability index: 2.46 for the first, 2.97 for the second.

Compared with EPHKCPECGKRFLRSSDLYRKQRL, EPHKCPECGKRFLRSSDLYRDQRL is higher in protein stability index: 2.67 for the first, 2.79 for the second.

Compared with EPHKCPECGKRFLRSSDLYRRQRL, EPHKCPECGKRFLRSSDLYRFQRL is higher in protein stability index: 2.07 for the first, 2.25 for the second.

First: EPHKCPECGKRFLRSSDLYRAQRL
Second: EPHKCPECGKRFLRSSDLYRMQRL
The protein stability index of the first is lower: 1.62 for the first, 2 for the second.

Compared with EPHKCPECGKRFLRSSDLYRYQRL, EPHKCPECGKRFLRSSDLYRIQRL is lower in protein stability index: 2.1 for the first, 1.64 for the second.

Compared with EPHKCPECGKRFLRSSDLYRCQRL, EPHKCPECGKRFLRSSDLYRLQRL is higher in protein stability index: 2.15 for the first, 2.4 for the second.
